Assay results published in patent US10428140B2, “Anti-EphA4 antibody” (EISAI R&D MANAGEMENT CO., LTD., priority 2015, dated 2019).

Test system: mouse ES cell derived-motor neuron / variant human SOD1 (G93A)-expressing astrocyte coculture
Assay: Motor neuron protection in in vitro ALS model derived from mouse ES cells
Assay type: cell-based
Conditions: antibody A 10, 30, 100 nM; EphA4-Fc 3, 10, 30 nM; KYL peptide 1, 3, 10 μM; 2 days
Procedure: Mouse ES cells were maintained and cultured according to the following steps. Mouse ES cells (129×1/SvJ) cryopreserved at −80° C. were thawed in a thermostat bath and then diluted with a mouse ES cell culture medium (KnockOut(TM) DMEM (Gibco) containing 10% fetal bovine serum (FBS, Gibco), 0.1 mM β-mercaptoethanol (Gibco), 1 mM sodium pyruvate (Invitrogen), 2 mM L-glutamine (Invitrogen), 1% nonessential amino acids (Invitrogen), 100 units/mL penicillin-100 μg/mL streptomycin (Invitrogen), and 1000 units/mL ESGRO(R) leukemia inhibitory factor (Merck Millipore)) warmed to 37° C. Each cell suspension was centrifuged (1500 rpm, 3 min, room temperature), followed by the removal of the supernatant. The cells were suspended in a fresh medium, then transferred to a culture dish with feeder cells inoculated in advance, and maintained and cultured in a CO2 incubator (5% CO2, 37° C.).
Astrocytes were established from a mouse newborn and maintained and cultured according to the following steps. A two-day-old wild-type mouse newborn (C57BL/6JJmsSlc (Japan SLC)) and a hybrid mouse newborn of a wild-type mouse and a variant human SOD1 (G93A) Tg-(B6.Cg-Tg(SOD1_G93A)1Gur/J ([…])) mouse were each euthanized by inhalation anesthesia with isoflurane (Intervet) or decapitation. […]

B1: antibody A: mouse anti-EphA4 monoclonal antibody, IgG1/κ; heavy chain variable region SEQ ID NO: 11, light chain variable region SEQ ID NO: 13 (antibody, listed as Mus musculus, V domains shown)
VH: QIQLVQSGPELKKPGETVKISCKASGYTFTDYSMHWVKQAPGKGLKWMGWINTETGEPTYADDFKGRFAFSLETSASTAYLQINNLKNEDTATYFCARIPLYYYGSRYWYFDVWGAGTTVTVSS
VL: DIQMTQSPASLSVSVGETVTITCRASENIYRNLAWYQQKQGKSPQLLVYAATNLADGVPSRFSGSGSGTQYSLKINSLQSEDFGSYYCQHFWGTPWTFGGGTKLEIK
suppression of motor neuron death / motor neuron protective effect (in words): suppressed, in a concentration-dependent manner
